Among the data in patent publication US20200317768A1 (published 2020) are Kd values, retold here.

Common to all, as to test: SPR (BIACORE), captured antibody, FcgR as analyte
In general terms: Surface plasmon resonance follows binding to a sensor surface in real time, without labels.

Experiment [1] concerns the target T1, cynomolgus monkey FcγRIIb extracellular domain, His-tagged (cynomolgus monkey).
T1 construct: also called cyno FcγRIIb; cynoFcγRIIb; not shown: C-terminal His-tag
T1 chain: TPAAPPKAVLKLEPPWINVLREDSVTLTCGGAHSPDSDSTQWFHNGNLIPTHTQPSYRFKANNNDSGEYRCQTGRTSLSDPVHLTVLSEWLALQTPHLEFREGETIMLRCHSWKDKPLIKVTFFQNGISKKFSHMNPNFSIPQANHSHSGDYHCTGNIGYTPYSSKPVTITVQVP
The method, then:
(§1) The kinetic analysis of interactions between these antibodies and FcγR was carried out using BIACORE® T200 or BIACORE® 4000 (GE Healthcare). HBS-EP+ (GE Healthcare) was used as the running buffer, and the measurement temperature was set to 25° C. A chip produced by immobilizing Protein A. Protein A/G or mouse anti-human IgG kappa light chain (BD Biosciences) onto a Series S Sensor Chip CM4 or CM5 (GE Healthcare) by the amine-coupling method was used. […] After the measurement, the antibody captured on the chip was washed off by allowing reaction with 10 mM glycine-HCl, pH1.5 and 25 mM NaOH so that the chip was regenerated and used repeatedly. The sensorgrams obtained as measurement results were analyzed by the 1:1 Langmuir binding model using the BIACORE® Evaluation Software to calculate the binding rate constant ka (L/mol/s) and dissociation rate constant kd (l/s), and the dissociation constant KD (mol/L) was calculated from these values. […] Regarding such interactions, KD values were calculated using the following 1:1 binding model described in BIACORE® T100 Software Handbook BR1006-48 Edition AE.

The target in experiment [2] is T2, cynomolgus monkey FcγRIIa2 extracellular domain, His-tagged (cynomolgus monkey).
T2 construct: also called cyno FcγRIIa2; cynoFcgRIIa2; not shown: C-terminal His-tag
T2 chain: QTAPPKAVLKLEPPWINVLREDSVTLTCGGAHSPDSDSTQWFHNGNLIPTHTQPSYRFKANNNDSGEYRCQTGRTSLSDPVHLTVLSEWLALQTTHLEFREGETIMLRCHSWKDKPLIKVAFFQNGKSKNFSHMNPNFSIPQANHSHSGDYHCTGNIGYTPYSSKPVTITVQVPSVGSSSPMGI
The procedure:
as §1

Experiment [3] addresses T3, human FcγRIIb extracellular domain, His-tagged (human, UniProt P31994 43-217).
T3 construct: also called FcgRIIb (human); not shown: C-terminal His-tag
T3 sequence: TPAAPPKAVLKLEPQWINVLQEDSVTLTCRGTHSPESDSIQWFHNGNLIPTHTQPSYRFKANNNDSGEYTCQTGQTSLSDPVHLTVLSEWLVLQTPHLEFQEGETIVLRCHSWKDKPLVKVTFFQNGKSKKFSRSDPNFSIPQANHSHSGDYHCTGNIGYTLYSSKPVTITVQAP
The procedure:
as §1

For experiment [4], the target named is T4, human FcγRIIaR extracellular domain, His-tagged (human, UniProt P12318 34-217).
T4 construct: also called human FcγRIIa (type R); FcgRIIaR; not shown: C-terminal His-tag
T4 chain: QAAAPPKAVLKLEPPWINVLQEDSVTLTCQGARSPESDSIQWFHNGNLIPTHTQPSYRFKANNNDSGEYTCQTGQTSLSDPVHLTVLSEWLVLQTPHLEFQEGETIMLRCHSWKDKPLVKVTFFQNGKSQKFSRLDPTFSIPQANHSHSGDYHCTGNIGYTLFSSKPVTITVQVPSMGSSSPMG
The method, then:
as §1

For experiment [5], the target named is T5, human FcγRIIaH extracellular domain, His-tagged (human, UniProt P12318 34-217).
T5 construct: also called human FcγRIIa (type H); FcgRIIaH; not shown: C-terminal His-tag
T5 sequence: T4 chain with R134H
The procedure: as §1

Experiment [6] addresses T6, cynomolgus monkey FcγRIIa3 extracellular domain, His-tagged (cynomolgus monkey).
T6 construct: also called cyno FcγRIIa3; cynoFcgRIIa3; not shown: C-terminal His-tag
T6 chain: T2 chain with K127I, N130K, H133P, Q142R
The method, then: as §1

For experiment [7], the target named is T7, human FcγRIIIaV extracellular domain, His-tagged (human, UniProt P08637 17-208).
T7 construct: also called FcgRIIIaV; not shown: C-terminal His-tag
The procedure: as §1

In experiment [8] the target is T8, cynomolgus monkey FcγRIIIaS extracellular domain, His-tagged (cynomolgus monkey, UniProt Q8SPW2 21-206 at identity 1.00)).
T8 construct: also called cyno FcγRIIIaS; cynoFcγRIIIaS; not shown: C-terminal His-tag
T8 chain: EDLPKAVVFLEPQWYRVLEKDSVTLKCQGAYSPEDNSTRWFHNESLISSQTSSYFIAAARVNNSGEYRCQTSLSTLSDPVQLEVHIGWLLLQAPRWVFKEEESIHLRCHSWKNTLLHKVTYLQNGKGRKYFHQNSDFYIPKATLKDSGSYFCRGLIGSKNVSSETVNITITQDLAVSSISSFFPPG
The method, then:
as §1

Experiment [9] addresses T9, cynomolgus monkey FcγRIIa1 extracellular domain, His-tagged (cynomolgus monkey).
T9 construct: also called cyno FcγRIIa1; cynoFcgRIIa1; not shown: C-terminal His-tag
T9 chain: T2 chain with T95P, A121T, K127I, S128A, N130K, N135D, Q142R
The method, then:
as §1

Changes are numbered by the printed parent chain.

T7 sequence (P08637 17-208 F176V): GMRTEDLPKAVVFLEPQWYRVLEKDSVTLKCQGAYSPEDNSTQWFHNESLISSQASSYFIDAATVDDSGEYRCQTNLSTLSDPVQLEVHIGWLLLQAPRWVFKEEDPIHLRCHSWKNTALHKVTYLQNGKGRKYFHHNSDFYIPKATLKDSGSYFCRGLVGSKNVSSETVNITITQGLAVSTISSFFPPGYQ

B1: M103205H795-MY451/M103202L889-SK1 (antibody, human IgG1, kappa)
heavy: QVTLKESGPVLVKPTETLTLTCTVSGIDLSHDDISWVRQAPGKGLEWVGIISYAGSTYYASWAKGRLTISKDTSKNQVVLTMTNMDPVDTATYYCARGVPAYSHGGDLWGQGTLVTVSSASTKGPSVFPLAPSSKSTSGGTAALGCLVKDYFPEPVTVSWNSGALTSGVHTFPAVLQSSGLYSLSSVVTVPSSSLGTQTYICNVNHKPSNTKVDKKVEPKSCDKTHTCPPCPANELLTGPSVFLFPPKPKDTLMISRTPEVTCVVVDVSDEDPEVKFNWYVDGVEVHNAKTKPREEQYNSTYRVVSVLTVLHQDWLNGKEYKCKVSNKALPKPIEKTISKAKGQPREPQVYTLPPSREEMTKNQVSLTCLVKGFYPSDIAVEWESNGQPENNYKTTPPVLDSDGSFFLYSKLTVDKSRWQQGNVFSCSVMHEALHNHYTQKSLSLSP
light: DIVMTQSPATLSLSPGERATLSCTSSQSVYHANWLSWFQQKPGQPPKLLIYWASTLAYGVPSRFSGSGSGTDFTLTISSLQPEDAATYYCAGGYGGGRYAFGQGTKVEIKRTVAAPSVFIFPPSDEQLKSGTASVVCLLNNFYPREAKVQWKVDNALQSGNSQESVTEQDSKDSTYSLSSTLTLSKADYEKHKVYACEVTHQGLSSPVTKSFNRGEC
notes: copies: 2 + 2
One may read the Kd as the equilibrium constant for the complex coming apart. B1: the Kd is 1000 nM in experiment [1]; 4200 nM in [2]; 3000 nM in experiment [3]; 840 nM in experiment [4]; 410 nM in experiment [5]; 6700 nM in [6]. In addition, the Kd in experiment [7] worked out at 7100 nM; in [8] it was 2700 nM; in experiment [9], 3600 nM.

B2: M103205H795-MY453/M103202L889-SK1 (antibody, human IgG1, kappa)
heavy: B1 heavy with N234R
light: B1 light
notes: copies: 2 + 2
With B2, the Kd in experiment [1] is 2100 nM; in experiment [2] it was 9900 nM; in experiment [3], 6500 nM; in experiment [4], 1600 nM; in experiment [5], 750 nM; in [6], 21000 nM. Further, the figures for the Kd in experiment [7], in experiment [8] and in experiment [9] were 14000 nM, 6500 nM and 8200 nM, respectively.

B3: M103205H795-MY457/M103202L889-SK1 (antibody, human IgG1, kappa)
heavy: B1 heavy with N234W
light: B1 light
notes: copies: 2 + 2
For B3, the dissociation constant Kd in experiment [1] is 200 nM; in experiment [2] it was 840 nM; in [3], 330 nM; in [4], 73 nM; in experiment [5] it was 120 nM; in [6], 1200 nM. The Kd in experiment [7] was 3500 nM; in experiment [8], 1100 nM; in experiment [9] it was 830 nM.

B4: M103205H795-MY458/M103202L889-SK1 (antibody, human IgG1, kappa)
heavy: B1 heavy with N234Y
light: B1 light
notes: copies: 2 + 2
Turning to B4, the Kd was 430 nM in experiment [1]; 1600 nM in experiment [2]; 990 nM in experiment [3]; 170 nM in experiment [4]; 160 nM in [5]; 3000 nM in experiment [6]. Moreover, the figures for the Kd in [7], in [8] and in experiment [9] were 5300 nM, 190 nM and 1800 nM, respectively.

B5: M103205H795-MY456/M103202L889-SK1 (antibody, human IgG1, kappa)
heavy: B1 heavy with N234V
light: B1 light
notes: copies: 2 + 2
Consider B5, for which the Kd in experiment [1] worked out at 520 nM; in experiment [2], 1700 nM; in experiment [3], 1100 nM; in [4], 290 nM; in experiment [5], 170 nM; in experiment [6], 3400 nM. Moreover, the results for the Kd in experiment [7], in experiment [8] and in [9] were 5300 nM, 2000 nM and 1900 nM, respectively.

B6: M103205H795-MY452/M103202L889-SK1 (antibody, human IgG1, kappa)
heavy: B1 heavy with N234Q
light: B1 light
notes: copies: 2 + 2
As for B6, the Kd in experiment [1] was determined as 920 nM; in experiment [2] it was 3100 nM; in [3], 2900 nM; in experiment [4], 620 nM; in [5] it was 360 nM; in experiment [6], 6500 nM. For the same molecule, the Kd in experiment [7] was 6100 nM; in [8], 2800 nM; in experiment [9], 3400 nM.

B7: M103205H795-MY455/M103202L889-SK1 (antibody, human IgG1, kappa)
heavy: B1 heavy with N234T
light: B1 light
notes: copies: 2 + 2
For B7, the Kd in experiment [1] was 920 nM; in experiment [2], 1900 nM; in experiment [3], 2200 nM; in experiment [4], 460 nM; in [5], 310 nM; in [6], 5400 nM. Also, the Kd in [7] came to 6800 nM; in experiment [8] it was 2800 nM; in experiment [9], 3100 nM.

B8: M103205H795-MY454/M103202L889-SK1 (antibody, human IgG1, kappa)
heavy: B1 heavy with N234S
light: B1 light
notes: copies: 2 + 2
In the case of B8, the dissociation constant Kd in experiment [1] is 1000 nM; in experiment [2], 3100 nM; in [3] it was 3100 nM; in experiment [4], 760 nM; in [5] it was 410 nM; in [6], 7600 nM. Further, the Kd stood at 5900 nM in [7], 2500 nM in experiment [8] and 3800 nM in [9].
